Measured values published in doi:10.1101/2025.04.18.649563.
Values joined by “and” are separate entries in the source; they are usually repeats but may differ in a detail not shown here. Identical values can stand only once.

Target: actin purified from muscle acetone powder (ground beef); polymerised to F-actin (Bos taurus (ground beef)) (UniProt P68138)
Experiment: co-sedimentation

Lfat1 ABD [change], recombinant (from UniProt Q5ZVQ3 138-355) (domain or fragment)
Kd: 19.1 µM and 16.3 µM and 63.7 µM
